Test results as given in article PMC3145769.

What was measured:
Assay in all cases: co-IP; anti-Flag M2 affinity gel on extracts of NIH3T3 cells transfected with 3xFlag Cyclin A2 alleles; endogenous partners detected by Western blot; densitometry (ImageQuantTL) normalised to immunoprecipitated Cyclin A2, percent of WT; repeated 5 times
[1] = molecular target: Cyclin A2 K256A, C-terminally fused to 3 Flag tags (mouse) (UniProt P51943)
[2] = molecular target: Cyclin A2 L204A, C-terminally fused to 3 Flag tags (mouse) (UniProt P51943)
Chain of Cyclin A2 L204A, C-terminally fused to 3 Flag tags (mouse) (P51943 whole entry L204A, the tested form may be a part): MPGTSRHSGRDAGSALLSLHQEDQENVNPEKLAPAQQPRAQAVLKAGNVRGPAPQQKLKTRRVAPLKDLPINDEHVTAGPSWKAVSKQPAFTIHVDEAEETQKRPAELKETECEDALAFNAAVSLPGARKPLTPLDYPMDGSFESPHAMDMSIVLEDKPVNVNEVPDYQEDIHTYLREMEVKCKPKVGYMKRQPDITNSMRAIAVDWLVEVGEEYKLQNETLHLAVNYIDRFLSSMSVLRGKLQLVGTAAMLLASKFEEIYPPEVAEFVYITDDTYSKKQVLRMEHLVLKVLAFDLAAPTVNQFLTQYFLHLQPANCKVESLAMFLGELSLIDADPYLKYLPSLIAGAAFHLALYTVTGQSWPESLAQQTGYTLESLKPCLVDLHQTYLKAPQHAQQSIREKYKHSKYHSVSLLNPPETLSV

[3] = molecular target: Cyclin A2 E180A, C-terminally fused to 3 Flag tags (mouse) (UniProt P51943)
Chain of Cyclin A2 E180A, C-terminally fused to 3 Flag tags (mouse) (P51943 whole entry E180A, the tested form may be a part): as the sequence (P51943 whole entry L204A, the tested form may be a part) above, with E180A, A204L counted along it

[4] = molecular target: Cyclin A2 W207A, C-terminally fused to 3 Flag tags (mouse) (UniProt P51943)
Chain of Cyclin A2 W207A, C-terminally fused to 3 Flag tags (mouse) (P51943 whole entry W207A, the tested form may be a part): as the sequence (P51943 whole entry L204A, the tested form may be a part) above, with A204L, W207A counted along it

[5] = molecular target: Cyclin A2 E210Q, C-terminally fused to 3 Flag tags (mouse) (UniProt P51943)
Chain of Cyclin A2 E210Q, C-terminally fused to 3 Flag tags (mouse) (P51943 whole entry E210Q, the tested form may be a part): as the sequence (P51943 whole entry L204A, the tested form may be a part) above, with A204L, E210Q counted along it

[6] = molecular target: Cyclin A2 M200A, C-terminally fused to 3 Flag tags (mouse) (UniProt P51943)
Chain of Cyclin A2 M200A, C-terminally fused to 3 Flag tags (mouse) (P51943 whole entry M200A, the tested form may be a part): as the sequence (P51943 whole entry L204A, the tested form may be a part) above, with M200A, A204L counted along it

[7] = molecular target: Cyclin A2 D171A, C-terminally fused to 3 Flag tags (mouse) (UniProt P51943)
Chain of Cyclin A2 D171A, C-terminally fused to 3 Flag tags (mouse) (P51943 whole entry D171A, the tested form may be a part): as the sequence (P51943 whole entry L204A, the tested form may be a part) above, with D171A, A204L counted along it

[8] = molecular target: Cyclin A2 WT, C-terminally fused to 3 Flag tags (mouse) (UniProt P51943)
Chain of Cyclin A2 WT, C-terminally fused to 3 Flag tags (mouse) (P51943 whole entry, the tested form may be a part): as the sequence (P51943 whole entry L204A, the tested form may be a part) above, with A204L counted along it

[9] = molecular target: Cyclin A2 L282R, C-terminally fused to 3 Flag tags (mouse) (UniProt P51943)
Chain of Cyclin A2 L282R, C-terminally fused to 3 Flag tags (mouse) (P51943 whole entry L282R, the tested form may be a part): as the sequence (P51943 whole entry L204A, the tested form may be a part) above, with A204L, L282R counted along it

[10] = molecular target: Cyclin A2 E285A, C-terminally fused to 3 Flag tags (mouse) (UniProt P51943)
Chain of Cyclin A2 E285A, C-terminally fused to 3 Flag tags (mouse) (P51943 whole entry E285A, the tested form may be a part): as the sequence (P51943 whole entry L204A, the tested form may be a part) above, with A204L, E285A counted along it

[11] = molecular target: Cyclin A2 Double (W207L, E210Q), C-terminally fused to 3 Flag tags (mouse) (UniProt P51943)
Chain of Cyclin A2 Double (W207L, E210Q), C-terminally fused to 3 Flag tags (mouse) (P51943 whole entry W207L/E210Q, the tested form may be a part): as the sequence (P51943 whole entry L204A, the tested form may be a part) above, with A204L, W207L, E210Q counted along it

Chain of Cyclin A2 K256A, C-terminally fused to 3 Flag tags (mouse) (P51943 whole entry K256A, the tested form may be a part): as the sequence (P51943 whole entry L204A, the tested form may be a part) above, with A204L, K256A counted along it

Row | percent co-precipitated relative to WT [1] [%] | percent co-precipitated relative to WT [2] [%] | percent co-precipitated relative to WT [3] [%] | percent co-precipitated relative to WT [4] [%] | percent co-precipitated relative to WT [5] [%] | percent co-precipitated relative to WT [6] [%] | percent co-precipitated relative to WT [7] [%] | percent co-precipitated relative to WT [8] [%] | percent co-precipitated relative to WT [9] [%] | percent co-precipitated relative to WT [10] [%] | percent co-precipitated relative to WT [11] [%] | Substance
1 | 68.2 | – | – | – | – | – | – | – | – | – | – | CDK2 (endogenous, NIH3T3) (from UniProt P97377 1-346)
2 | – | 72.4 | 17.7 | 1.2 | 99.6 | 86.4 | 100 | 100 | 81.5 | 41.7 | 66.4 | CDK2 (endogenous, NIH3T3) (from UniProt P97377 1-346) (enzyme)
